Results: patent US20190367617A1 (AMPSOURCE BIOPHARMA SHANGHAI, published 2019)

How the values were obtained:
[1] = target: T1, cynomolgus monkey PD-1/Fc (Sino Biological Inc.) (cynomolgus monkey, UniProt B0LAJ3 25-170); assay: indirect ELISA, cynomolgus monkey PD-1/Fc coated at 0.1 µg/mL, HRP goat anti-mouse IgG
T1 construct: Bought protein
Description: (§1) Human PD-1/His, human ICOS/Fc, human CTLA4/His, human CD28/Fc, cynomolgus monkey PD-1/Fc, and mouse PD-1/His (all from Sino Biological Inc., Beijing, China) were diluted with PBS buffer to 0.1 μg/mL, and added to the 96-well plate at a volume of 100 μL/well and placed at 16° C. for 16 to 20 h. The PBS buffer was aspirated from the 96-well plate, and the plate was washed once with PBST (PBS containing 0.05% Tween 20, pH 7.4). 200 μL of PBST/1% no-fat milk was added to each well and incubated at room temperature for 1 h for blocking. The blocking solution was removed and the plate was washed 3 times with PBST. 100 μL of the anti-PD-1 antibody to be tested was added to each well, and incubated at room temperature for 1.5 h. The reaction solution was removed and the plate was washed 3 times with PBST. 50 μL of the HRP-labeled goat anti-mouse IgG secondary antibody (The Jackson Laboratory) diluted (dilution ratio 1:4000) was added to each well. Incubated at room temperature for 1 h. The plate was washed 3 times with PBST. 100 μL of the TMB was added to each well and incubated at room temperature for 5-10 min 50 μL of 0.2 M sulfuric acid was added to each well to terminate the reaction. Absorbance values were read at dual wavelengths of 450/620 nm in a microplate reader.

[2] = target: T2, Human PD-1 (Sino Biological Inc., Beijing, China) (human, UniProt Q15116 25-167); assay: indirect ELISA, human PD-1 coated at 0.1 µg/mL
T2 construct: also called hPD-1
Description: The PBS buffer was aspirated from the 96-well plate, and the plate was washed once with PBST (PBS containing 0.05% Tween 20, pH 7.4). 200 μL of PBST/1% no-fat milk was added to each well and incubated at room temperature for 1 h for blocking. The blocking solution was removed and the plate was washed 3 times with PBST. […] The reaction solution was removed and the plate was washed 3 times with PBST. […] The plate was washed 3 times with PBST.

[3] = target: T3, human CD28/Fc (Sino Biological Inc.) (human, UniProt P10747 19-152); assay: indirect ELISA, human CD28/Fc coated at 0.1 µg/mL, HRP goat anti-mouse IgG
T3 construct: Bought protein; not shown: Fc
Description: as §1

[4] = target: T4, human ICOS/Fc (Sino Biological Inc.) (human, UniProt Q9Y6W8 21-141, limits assumed); assay: indirect ELISA, human ICOS/Fc coated at 0.1 µg/mL, HRP goat anti-mouse IgG
T4 construct: Bought protein; not shown: Fc
T4 sequence (looked up): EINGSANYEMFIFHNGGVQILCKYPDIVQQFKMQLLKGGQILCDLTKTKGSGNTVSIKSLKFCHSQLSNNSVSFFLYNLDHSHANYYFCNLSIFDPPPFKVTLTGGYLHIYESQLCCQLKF
Description: as §1

[5] = target: T5, human CTLA4/His (Sino Biological Inc.) (human, UniProt P16410 36-162, limits assumed); assay: indirect ELISA, human CTLA4/His coated at 0.1 µg/mL, HRP goat anti-mouse IgG
T5 construct: Bought protein; not shown: His tag
Description: as §1

[6] = target: T6, mouse PD-1/His (Sino Biological Inc.) (mouse, UniProt Q02242 25-167); assay: indirect ELISA, mouse PD-1/His coated at 0.1 µg/mL, HRP goat anti-mouse IgG
T6 construct: Bought protein; not shown: His tag
T6 sequence (looked up): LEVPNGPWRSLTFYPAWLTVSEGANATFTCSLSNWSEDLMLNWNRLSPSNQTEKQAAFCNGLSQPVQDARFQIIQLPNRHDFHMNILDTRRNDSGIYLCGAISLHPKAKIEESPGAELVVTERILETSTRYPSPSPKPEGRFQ
Description: as §1

[7] = target: T7, human PD-1/His (Sino Biological Inc.) (human, UniProt Q15116 25-170); assay: indirect ELISA, human PD-1/His coated at 0.1 µg/mL, HRP goat anti-mouse IgG
T7 construct: extracellular domain; Bought protein; also called extracellular domain fragment of PD-1 protein containing His tag; not shown: His tag
Description: as §1

[8] = target: T7, human PD-1/His (Sino Biological Inc.); assay: BLI (Octet), human PD-1/His on Ni-NTA sensor, antibody 3.125-100 nM
Excerpt: We used the bio-layer interferometry (BLI) technique to characterize the binding kinetics and affinity of purified murine monoclonal antibodies. According to the standard procedure, the Octet molecular interaction instrument (ForteBio Octet RED & QK system, PALL corp.) was operated. […] The antigen-antibody association and dissociation kinetics were then tracked.

T7 sequence (Q15116 25-170): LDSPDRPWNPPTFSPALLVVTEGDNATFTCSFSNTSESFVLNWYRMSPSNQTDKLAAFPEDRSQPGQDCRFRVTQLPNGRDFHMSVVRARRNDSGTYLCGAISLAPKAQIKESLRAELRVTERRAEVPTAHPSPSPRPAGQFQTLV
T1 sequence (B0LAJ3 entry or part of it limits assumed): as the sequence (Q15116 25-170) above, with D2E, P10A, V19L, T35A, Q75R, T144A counted along it
T2 sequence (Q15116 25-167 limits assumed): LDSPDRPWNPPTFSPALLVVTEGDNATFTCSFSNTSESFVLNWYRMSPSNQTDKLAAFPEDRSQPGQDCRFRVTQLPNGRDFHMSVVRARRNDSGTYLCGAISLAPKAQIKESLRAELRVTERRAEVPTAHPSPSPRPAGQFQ
T5 sequence (P16410 36-162 limits assumed): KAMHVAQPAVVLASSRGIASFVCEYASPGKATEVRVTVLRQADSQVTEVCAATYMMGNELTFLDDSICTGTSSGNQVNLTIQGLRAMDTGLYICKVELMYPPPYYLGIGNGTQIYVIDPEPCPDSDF

EC50 (read off the curve) [1]: ~3 ng/mL
EC50 [2]: ~2 ng/mL
binding result [3]: no binding (tested: 10 µg/mL)
binding result [4]: no binding (tested: 10 µg/mL)
binding result [5]: no binding (tested: 10 µg/mL)
binding result [6]: no binding (tested: 10 µg/mL)
EC50 (read off the curve) [7]: ~4 ng/mL
Kd [8]: < 1 pM
koff [8]: < 1e-07 s⁻¹
kon [8]: 109000 M⁻¹ s⁻¹
B1: murine monoclonal antibody AB12M1 (antibody, mouse IgG2b, V domains shown)
VH: EVKLVESGGGLVKPGGSLKLSCAASGFTFSSYGMSWVRQTPEKRLEWVATISGGGRDTYYPDSVKGRFTISRDNAKNNLYLQMSSLRSEDTALYYCARQKDTSWFVHWGQGTLVTVSA
VL: not shown
notes: subclass identified as mouse IgG2b (Kappa), purified from hybridoma supernatant; also called antibody of hybridoma clone #32
